# Laboratory results as given in patent US20060105320A1.
# How the values were obtained:
# [1] = biological target: NM (N-terminal and middle region of Sup35p), soluble / unpolymerized (Saccharomyces cerevisiae) (UniProt P05453); assay: cell-based or functional assay
# [2] = biological target: biotinylated NM^K184C seed (Saccharomyces cerevisiae) (UniProt P05453); assay: capture of biotinylated seed on Streptavidin-coated Dynabeads, SDS wash, scintillation counting
# biotinylated NM^K184C seed (Saccharomyces cerevisiae), sequence (P05453 1-253 K184C): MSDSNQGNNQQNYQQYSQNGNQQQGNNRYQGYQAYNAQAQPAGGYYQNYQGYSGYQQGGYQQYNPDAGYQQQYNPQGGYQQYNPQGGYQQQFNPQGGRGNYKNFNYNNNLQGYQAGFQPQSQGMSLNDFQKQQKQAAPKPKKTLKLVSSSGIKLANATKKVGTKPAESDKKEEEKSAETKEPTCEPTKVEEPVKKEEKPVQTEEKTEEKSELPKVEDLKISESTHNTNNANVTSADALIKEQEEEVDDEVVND
# NM (N-terminal and middle region of Sup35p), soluble / unpolymerized (Saccharomyces cerevisiae), sequence (P05453 1-253): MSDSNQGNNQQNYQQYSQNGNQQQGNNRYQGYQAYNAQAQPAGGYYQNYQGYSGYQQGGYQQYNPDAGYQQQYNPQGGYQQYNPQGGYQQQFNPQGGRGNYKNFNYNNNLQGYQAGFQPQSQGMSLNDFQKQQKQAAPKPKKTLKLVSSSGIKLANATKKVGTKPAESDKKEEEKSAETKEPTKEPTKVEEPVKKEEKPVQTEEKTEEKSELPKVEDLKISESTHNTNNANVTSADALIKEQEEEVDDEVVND
Substance,"IC50 of inhibition of NM fibrillization, no nucleotide [1] [nM]","IC50 of inhibition of NM fibrillization, with ADP [1] [nM]","IC50 of inhibition of NM fibrillization, with AMP-PNP [1] [nM]","IC50 of inhibition of NM fibrillization, with ATP hydrolysis [1] [nM]",fraction of seed-bound NM soluble in SDS [2] [%]
Hsp104 (from UniProt P31539 1-908) (enzyme),7600,3100,200,100,
NM^T158C-iodo[1-^14C]acetamide (soluble) (from UniProt P05453 1-253),,,,,50
